Measurements: patent publication US20250215091A1, “Anti-GAL3 Antibodies and Compositions” (Les Laboratoires Servier, priority 2022, published 2025)

Biological target: T1, recombinant human Gal3 full-length (Hu-Gal3-FL) (Homo sapiens, UniProt P17931)
T1 construct: recombinant human Gal3 full-length (Hu-Gal3-FL); purchased Novalix
Test: SPR (Biacore T-200) affinity on human full-length Gal3
Format: binding
Details: full-length Gal3, 25° C.
Protocol: The interaction of the anti-Gal3 antibody with recombinant human Gal3 full-length (Hu-Gal3-FL) and murine Gal3 (m-Gal3-FL) (from Novalix) was monitored by surface plasmon resonance (SPR) detection using a Biacore T-200 instrument.
Binding studies were performed in freshly prepared, filtered and degassed running buffer containing 10 mM HEPES, 150 mM NaCl, and 0.05% P20 (HBS-P, Cytiva Life Sciences) at 25° C. Before performing the binding studies, the CM5 sensor surface immobilized with anti-human Fc mAb was equilibrated with HBS-P by priming the instrument at least three to four times.
The CM5 sensor surface was first immobilized with an anti-human Fc mAb using a standard protocol. The entire sensor surface was first activated by injecting a 1:1 (v/v) mixture of 400 mM EDC and 100 mM NHS at a flow rate of 10 μL/minute for 7 minutes. Monoclonal anti-human Fc antibody (Millipore AP113), 25 μg/mL in Na acetate pH5, 360 s were flowed at 10 μL/minute to reach 10000 RU on both flow cells followed by the injection of 1 M ethanolamine, pH8.5 for 7 minutes at a flow rate of 10 μL/minute. During the entire immobilization procedure, HBS-P was used as the running buffer.
Antibody samples were prepared at 5 μg/ml and were injected for 30 seconds at 10 μL/minute. In general, 400 to 680 resonance units of antibodies were captured on the chip.

T1 sequence (P17931 whole entry): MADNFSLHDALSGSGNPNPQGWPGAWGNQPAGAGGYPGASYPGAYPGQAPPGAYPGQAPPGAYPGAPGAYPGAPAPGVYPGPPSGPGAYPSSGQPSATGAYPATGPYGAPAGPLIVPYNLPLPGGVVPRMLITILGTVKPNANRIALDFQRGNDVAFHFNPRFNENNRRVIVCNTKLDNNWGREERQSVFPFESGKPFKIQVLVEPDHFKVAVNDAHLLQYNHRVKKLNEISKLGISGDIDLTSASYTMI

B1: H10-G1: germline framework variant of H10; Table 3 lists H10-G with VH SEQ ID NO 90, VL SEQ ID NO 91 (antibody, V domains shown)
VH: EVQLVESGGGLVKPGGSLRLSCAASGFTFSNYYMNWVRQAPGKGLEWISYINGASRDISYADSVKGRFTISRDNAKNSLYLQMNSLRAEDTAVYYCVRSSYGYSNYGSGMDVWGRGTLVTVSS
VL: QSALTQPASVSGSPGQSITISCTGTSSDVGGSYNVAWYQQHPGKAPKLMIYNDANRPSGVSNRFSGSKSGNTASLTISGLQAEDEADYYCSSNTADSTRVFGGGTKLEIK
Kd: 4.9 nM
